In patent US20250051474A1, “ANTI-CD97 ANTIBODIES AND ANTIBODY-DRUG CONJUGATES” (New York University, priority 2023, published 2025):

Assays:
Experiment in all cases: cell-based binding assay: CD97 GAIN mutant transiently expressed on ExpiCHO cells, A8 Fab titrated, flow cytometry MFI, 1:1 fit; upper panel
Q365A = target: T1, Q365A (human, UniProt P48960)
T1 construct: transiently expressed on the surface of ExpiCHO cells, gated by anti-V5 tag staining; also called CD97 GAIN mutant Q365A expressed on ExpiCHO cells
T1 sequence (receptor, looked up): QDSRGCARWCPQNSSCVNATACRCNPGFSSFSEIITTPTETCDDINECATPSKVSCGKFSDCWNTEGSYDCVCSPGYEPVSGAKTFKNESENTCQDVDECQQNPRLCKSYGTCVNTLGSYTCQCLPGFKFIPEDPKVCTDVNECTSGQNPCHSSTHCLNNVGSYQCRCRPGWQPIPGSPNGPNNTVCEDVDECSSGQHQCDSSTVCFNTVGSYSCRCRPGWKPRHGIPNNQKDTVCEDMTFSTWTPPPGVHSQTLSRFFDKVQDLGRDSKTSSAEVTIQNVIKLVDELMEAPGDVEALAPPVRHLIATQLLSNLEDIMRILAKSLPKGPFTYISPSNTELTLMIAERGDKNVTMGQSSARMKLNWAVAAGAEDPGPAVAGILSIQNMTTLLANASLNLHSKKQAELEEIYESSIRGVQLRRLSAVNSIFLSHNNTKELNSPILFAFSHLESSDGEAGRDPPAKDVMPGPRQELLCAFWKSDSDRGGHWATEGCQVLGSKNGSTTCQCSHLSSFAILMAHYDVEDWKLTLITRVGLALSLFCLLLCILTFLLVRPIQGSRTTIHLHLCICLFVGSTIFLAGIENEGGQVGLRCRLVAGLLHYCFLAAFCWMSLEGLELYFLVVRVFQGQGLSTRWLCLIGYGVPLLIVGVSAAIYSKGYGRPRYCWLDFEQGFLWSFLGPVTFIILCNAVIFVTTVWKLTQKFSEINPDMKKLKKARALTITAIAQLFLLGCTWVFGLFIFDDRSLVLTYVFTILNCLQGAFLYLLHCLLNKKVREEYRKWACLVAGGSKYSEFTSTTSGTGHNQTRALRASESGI
Experimental: (§1) KD values were determined from the curve fitting of a 1:1 binding model.

K519A = target: T2, K519A (human, UniProt P48960)
T2 construct: transiently expressed on the surface of ExpiCHO cells, gated by anti-V5 tag staining; also called CD97 GAIN mutant K519A expressed on ExpiCHO cells
T2 sequence (receptor, looked up): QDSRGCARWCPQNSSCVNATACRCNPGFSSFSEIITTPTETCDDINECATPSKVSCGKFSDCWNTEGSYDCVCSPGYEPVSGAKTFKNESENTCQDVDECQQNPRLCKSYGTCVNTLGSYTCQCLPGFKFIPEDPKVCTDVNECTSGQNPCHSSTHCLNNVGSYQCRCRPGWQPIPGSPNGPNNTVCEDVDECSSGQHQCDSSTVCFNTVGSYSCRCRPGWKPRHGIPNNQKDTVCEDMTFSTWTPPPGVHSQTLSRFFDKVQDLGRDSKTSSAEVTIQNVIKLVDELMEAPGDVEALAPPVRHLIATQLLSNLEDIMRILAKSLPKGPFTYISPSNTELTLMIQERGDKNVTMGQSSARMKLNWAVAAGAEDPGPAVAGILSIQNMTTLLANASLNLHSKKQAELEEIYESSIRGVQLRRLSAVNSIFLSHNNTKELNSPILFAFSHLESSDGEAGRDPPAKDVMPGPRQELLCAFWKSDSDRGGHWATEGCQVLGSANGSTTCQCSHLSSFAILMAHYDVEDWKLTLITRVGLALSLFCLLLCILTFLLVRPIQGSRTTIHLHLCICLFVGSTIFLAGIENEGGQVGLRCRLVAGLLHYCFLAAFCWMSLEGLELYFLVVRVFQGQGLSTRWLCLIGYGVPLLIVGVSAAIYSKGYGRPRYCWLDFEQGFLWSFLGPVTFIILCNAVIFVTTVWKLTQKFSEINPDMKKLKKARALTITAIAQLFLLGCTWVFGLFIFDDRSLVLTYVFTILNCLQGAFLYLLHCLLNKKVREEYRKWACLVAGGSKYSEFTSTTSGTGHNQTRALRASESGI
Experimental: as §1

[1] = target: T3, CD97 GAIN mutant Q376A expressed on ExpiCHO cells (human, UniProt P48960 21-835)
T3 construct: numbering of isoform 1; whole entry named
T3 sequence: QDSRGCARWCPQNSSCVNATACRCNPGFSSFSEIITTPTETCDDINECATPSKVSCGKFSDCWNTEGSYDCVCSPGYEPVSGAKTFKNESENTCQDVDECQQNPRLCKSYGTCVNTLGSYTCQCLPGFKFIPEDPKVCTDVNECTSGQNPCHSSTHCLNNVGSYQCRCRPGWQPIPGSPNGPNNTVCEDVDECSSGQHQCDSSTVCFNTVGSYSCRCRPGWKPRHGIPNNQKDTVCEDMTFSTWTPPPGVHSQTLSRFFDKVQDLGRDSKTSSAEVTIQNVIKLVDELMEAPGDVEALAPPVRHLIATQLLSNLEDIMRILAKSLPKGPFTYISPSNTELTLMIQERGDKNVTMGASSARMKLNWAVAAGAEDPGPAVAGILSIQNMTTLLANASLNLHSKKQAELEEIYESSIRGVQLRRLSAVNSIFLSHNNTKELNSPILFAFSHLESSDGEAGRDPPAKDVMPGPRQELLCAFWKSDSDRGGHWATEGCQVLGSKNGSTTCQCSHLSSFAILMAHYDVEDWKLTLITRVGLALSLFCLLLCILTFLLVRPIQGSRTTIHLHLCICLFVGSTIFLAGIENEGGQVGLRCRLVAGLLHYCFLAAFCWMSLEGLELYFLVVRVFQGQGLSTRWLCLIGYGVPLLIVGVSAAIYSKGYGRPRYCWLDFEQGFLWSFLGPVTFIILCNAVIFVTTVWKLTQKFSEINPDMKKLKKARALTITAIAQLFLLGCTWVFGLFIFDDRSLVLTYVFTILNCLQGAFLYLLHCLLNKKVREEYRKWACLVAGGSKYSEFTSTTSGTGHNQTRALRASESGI
Experimental: as §1

- Kd (Q365A): 56 nM
- Kd (K519A): 110 nM
- Kd [1]: 310 nM
B1: Antibody clone A8, Fab format (Fab, V domains shown)
VH: EVQLVESGGGLVQPGGSLRLSCAASGFTISSYSIHWVRQAPGKGLEWVASISPYYGSTSYADSVKGRFTISADTSKNTAYLQMNSLRAEDTAVYYCARSWYYYEQNPYWYQKEEQALDYWGQGTLVTVSS
VL: DIQMTQSPSSLSASVGDRVTITCRASQSVSSAVAWYQQKPGKAPKLLIYSASSLYSGVPSRFSGSRSGTDFTLTISSLQPEDFATYYCQQSVYSPVTFGQGTKVEIKR
notes: Fab; also called wild type A8
